Data reported in patent US20030143210A1 (Biogen, published 2003).

Molecular target: T1, lymphotoxin-β (human, UniProt Q06643 4-244, N-linked oligosaccharide (about 3 kD lost on N-glycanase treatment))
T1 construct: Type II membrane protein; In the reimmunoprecipitation tests the protein had been eluted from SDS-PAGE gel slices; also called LT-β; LT-B
T1 sequence: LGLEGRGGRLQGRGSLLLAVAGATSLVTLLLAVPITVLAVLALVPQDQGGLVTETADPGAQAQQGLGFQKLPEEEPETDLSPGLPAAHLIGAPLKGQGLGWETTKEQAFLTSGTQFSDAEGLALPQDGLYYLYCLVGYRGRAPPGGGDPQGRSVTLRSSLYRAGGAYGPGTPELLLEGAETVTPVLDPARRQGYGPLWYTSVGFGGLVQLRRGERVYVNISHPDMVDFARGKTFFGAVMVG
Assay: co-immunoprecipitation, then reimmunoprecipitation of separated bands from 35S-Met labeled II-23.D7 cells
Procedure: Reimmunoprecipitation of SDS-PAGE-separated antigens was carried out by excising labeled bands from gels, rehydrating them for 10 minutes in TBS, 0.2% SDS, and then dicing the gel slices into small pieces. The proteins were eluted by incubation in 1 ml TBS, 0.2% SDS for 8 hours at room temperature, with rotation. After elution the gel pieces were removed by centrifugation, and NP-40 was added to the supernatant to a final concentration of 2%. The eluted proteins were then immunoprecipitated as above, and reanalyzed by SDS-PAGE.

B1: lymphotoxin-α (ligand, human, UniProt P01374 35-205, looked up)
chain: LPGVGLTPSAAQTARQHPKMHLAHSTLKPAAHLIGDPSKQNSLLWRANTDRAFLQDGFSLSNNSLLVPTSGIYFVYSQVVFSGKAYSPKATSSPLYLAHEVQLFSSQYPFHVPLLSSQKMVYPGLQEPWLHSMYHGAAFQLTQGDQLSTHTDGIPHLVLSPSTVFFGAFAL
modifications: N-linked oligosaccharide
notes: mature; also called LT-α; LT
  binding result: binds
